Target: PrP (prion protein) (UniProt P04156)
Test: EMSA
Details: PrP form and source not stated

“GGGAGACAAGACUAGACGCUCAACUACGAACUCAUGACACAAGGAUGCAAUCUCAUCCCG [B-end (PrPSc binding region)]” showed a Kd of 44.3 nM.

From patent publication US20140011209
